Several values for one entry are separate records, joined by “and”; a condition that tells them apart may be missing. Identical values can stand only once. Blank lines part the entries; values can stand above or below the molecule they belong to.
Tests used:
[1] = target: Phosphorylated Drosophila Ft(EC1-4) (Drosophila) (UniProt P33450); assay: ITC; MicroCal ITC200; fly Ft(EC1-4) ~50 µM, fly Ds(EC1-4) ~300 µM; proteins phosphorylated with Fj as needed; 20 °C; one set of sites
[2] = target: Drosophila Ft(EC1–4), phosphorylated (Drosophila); assay: ITC; fly Ft(EC1–4) at ~50 μM and Ds(EC1–4) at ~300 μM, unmodified or phosphorylated with Fj; same conditions as for the human proteins (20 °C); one set of sites
[3] = target: Phosphorylated Drosophila Ft(EC1-4) (Drosophila) (UniProt P33450); assay: ITC; MicroCal ITC200; fly Ft(EC1-4) ~50 µM and Ds(EC1-4) ~300 µM, unmodified or phosphorylated with Fj; same conditions as for the human proteins (20 °C); fitted with one set of sites; two independent experiments
[4] = target: CDH23 EC1-EC2 (UniProt Q99PF4); conditions: cited from earlier work
[5] = target: T1, Human Fat4(EC1-4) (human, UniProt Q6V0I7 43-475); assay: ITC; MicroCal ITC200; Fat4 constructs 30 µM in the sample cell, Dchs1 constructs 300 µM as titrants; 20 °C; one set of sites; conditions: both partners purified
T1 construct: human Fat4, extracellular cadherin domains EC1-EC4, aa43-475; A 3C protease site stands between the protein and the C-terminal BAP-tag and His6; also called WT
T1 sequence: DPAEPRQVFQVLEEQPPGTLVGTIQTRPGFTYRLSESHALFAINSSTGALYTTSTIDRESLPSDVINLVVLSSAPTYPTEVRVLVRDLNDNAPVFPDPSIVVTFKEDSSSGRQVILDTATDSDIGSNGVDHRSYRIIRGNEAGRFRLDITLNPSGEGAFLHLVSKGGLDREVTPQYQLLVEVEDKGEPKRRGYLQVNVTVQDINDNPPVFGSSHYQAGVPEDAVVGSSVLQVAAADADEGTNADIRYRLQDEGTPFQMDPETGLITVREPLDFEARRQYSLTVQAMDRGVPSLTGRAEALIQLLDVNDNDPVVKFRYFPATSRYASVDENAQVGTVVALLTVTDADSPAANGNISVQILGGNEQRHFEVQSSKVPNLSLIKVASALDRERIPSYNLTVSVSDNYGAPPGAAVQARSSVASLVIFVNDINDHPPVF

Chain of Phosphorylated Drosophila Ft(EC1-4) (Drosophila) (P33450 36-5147): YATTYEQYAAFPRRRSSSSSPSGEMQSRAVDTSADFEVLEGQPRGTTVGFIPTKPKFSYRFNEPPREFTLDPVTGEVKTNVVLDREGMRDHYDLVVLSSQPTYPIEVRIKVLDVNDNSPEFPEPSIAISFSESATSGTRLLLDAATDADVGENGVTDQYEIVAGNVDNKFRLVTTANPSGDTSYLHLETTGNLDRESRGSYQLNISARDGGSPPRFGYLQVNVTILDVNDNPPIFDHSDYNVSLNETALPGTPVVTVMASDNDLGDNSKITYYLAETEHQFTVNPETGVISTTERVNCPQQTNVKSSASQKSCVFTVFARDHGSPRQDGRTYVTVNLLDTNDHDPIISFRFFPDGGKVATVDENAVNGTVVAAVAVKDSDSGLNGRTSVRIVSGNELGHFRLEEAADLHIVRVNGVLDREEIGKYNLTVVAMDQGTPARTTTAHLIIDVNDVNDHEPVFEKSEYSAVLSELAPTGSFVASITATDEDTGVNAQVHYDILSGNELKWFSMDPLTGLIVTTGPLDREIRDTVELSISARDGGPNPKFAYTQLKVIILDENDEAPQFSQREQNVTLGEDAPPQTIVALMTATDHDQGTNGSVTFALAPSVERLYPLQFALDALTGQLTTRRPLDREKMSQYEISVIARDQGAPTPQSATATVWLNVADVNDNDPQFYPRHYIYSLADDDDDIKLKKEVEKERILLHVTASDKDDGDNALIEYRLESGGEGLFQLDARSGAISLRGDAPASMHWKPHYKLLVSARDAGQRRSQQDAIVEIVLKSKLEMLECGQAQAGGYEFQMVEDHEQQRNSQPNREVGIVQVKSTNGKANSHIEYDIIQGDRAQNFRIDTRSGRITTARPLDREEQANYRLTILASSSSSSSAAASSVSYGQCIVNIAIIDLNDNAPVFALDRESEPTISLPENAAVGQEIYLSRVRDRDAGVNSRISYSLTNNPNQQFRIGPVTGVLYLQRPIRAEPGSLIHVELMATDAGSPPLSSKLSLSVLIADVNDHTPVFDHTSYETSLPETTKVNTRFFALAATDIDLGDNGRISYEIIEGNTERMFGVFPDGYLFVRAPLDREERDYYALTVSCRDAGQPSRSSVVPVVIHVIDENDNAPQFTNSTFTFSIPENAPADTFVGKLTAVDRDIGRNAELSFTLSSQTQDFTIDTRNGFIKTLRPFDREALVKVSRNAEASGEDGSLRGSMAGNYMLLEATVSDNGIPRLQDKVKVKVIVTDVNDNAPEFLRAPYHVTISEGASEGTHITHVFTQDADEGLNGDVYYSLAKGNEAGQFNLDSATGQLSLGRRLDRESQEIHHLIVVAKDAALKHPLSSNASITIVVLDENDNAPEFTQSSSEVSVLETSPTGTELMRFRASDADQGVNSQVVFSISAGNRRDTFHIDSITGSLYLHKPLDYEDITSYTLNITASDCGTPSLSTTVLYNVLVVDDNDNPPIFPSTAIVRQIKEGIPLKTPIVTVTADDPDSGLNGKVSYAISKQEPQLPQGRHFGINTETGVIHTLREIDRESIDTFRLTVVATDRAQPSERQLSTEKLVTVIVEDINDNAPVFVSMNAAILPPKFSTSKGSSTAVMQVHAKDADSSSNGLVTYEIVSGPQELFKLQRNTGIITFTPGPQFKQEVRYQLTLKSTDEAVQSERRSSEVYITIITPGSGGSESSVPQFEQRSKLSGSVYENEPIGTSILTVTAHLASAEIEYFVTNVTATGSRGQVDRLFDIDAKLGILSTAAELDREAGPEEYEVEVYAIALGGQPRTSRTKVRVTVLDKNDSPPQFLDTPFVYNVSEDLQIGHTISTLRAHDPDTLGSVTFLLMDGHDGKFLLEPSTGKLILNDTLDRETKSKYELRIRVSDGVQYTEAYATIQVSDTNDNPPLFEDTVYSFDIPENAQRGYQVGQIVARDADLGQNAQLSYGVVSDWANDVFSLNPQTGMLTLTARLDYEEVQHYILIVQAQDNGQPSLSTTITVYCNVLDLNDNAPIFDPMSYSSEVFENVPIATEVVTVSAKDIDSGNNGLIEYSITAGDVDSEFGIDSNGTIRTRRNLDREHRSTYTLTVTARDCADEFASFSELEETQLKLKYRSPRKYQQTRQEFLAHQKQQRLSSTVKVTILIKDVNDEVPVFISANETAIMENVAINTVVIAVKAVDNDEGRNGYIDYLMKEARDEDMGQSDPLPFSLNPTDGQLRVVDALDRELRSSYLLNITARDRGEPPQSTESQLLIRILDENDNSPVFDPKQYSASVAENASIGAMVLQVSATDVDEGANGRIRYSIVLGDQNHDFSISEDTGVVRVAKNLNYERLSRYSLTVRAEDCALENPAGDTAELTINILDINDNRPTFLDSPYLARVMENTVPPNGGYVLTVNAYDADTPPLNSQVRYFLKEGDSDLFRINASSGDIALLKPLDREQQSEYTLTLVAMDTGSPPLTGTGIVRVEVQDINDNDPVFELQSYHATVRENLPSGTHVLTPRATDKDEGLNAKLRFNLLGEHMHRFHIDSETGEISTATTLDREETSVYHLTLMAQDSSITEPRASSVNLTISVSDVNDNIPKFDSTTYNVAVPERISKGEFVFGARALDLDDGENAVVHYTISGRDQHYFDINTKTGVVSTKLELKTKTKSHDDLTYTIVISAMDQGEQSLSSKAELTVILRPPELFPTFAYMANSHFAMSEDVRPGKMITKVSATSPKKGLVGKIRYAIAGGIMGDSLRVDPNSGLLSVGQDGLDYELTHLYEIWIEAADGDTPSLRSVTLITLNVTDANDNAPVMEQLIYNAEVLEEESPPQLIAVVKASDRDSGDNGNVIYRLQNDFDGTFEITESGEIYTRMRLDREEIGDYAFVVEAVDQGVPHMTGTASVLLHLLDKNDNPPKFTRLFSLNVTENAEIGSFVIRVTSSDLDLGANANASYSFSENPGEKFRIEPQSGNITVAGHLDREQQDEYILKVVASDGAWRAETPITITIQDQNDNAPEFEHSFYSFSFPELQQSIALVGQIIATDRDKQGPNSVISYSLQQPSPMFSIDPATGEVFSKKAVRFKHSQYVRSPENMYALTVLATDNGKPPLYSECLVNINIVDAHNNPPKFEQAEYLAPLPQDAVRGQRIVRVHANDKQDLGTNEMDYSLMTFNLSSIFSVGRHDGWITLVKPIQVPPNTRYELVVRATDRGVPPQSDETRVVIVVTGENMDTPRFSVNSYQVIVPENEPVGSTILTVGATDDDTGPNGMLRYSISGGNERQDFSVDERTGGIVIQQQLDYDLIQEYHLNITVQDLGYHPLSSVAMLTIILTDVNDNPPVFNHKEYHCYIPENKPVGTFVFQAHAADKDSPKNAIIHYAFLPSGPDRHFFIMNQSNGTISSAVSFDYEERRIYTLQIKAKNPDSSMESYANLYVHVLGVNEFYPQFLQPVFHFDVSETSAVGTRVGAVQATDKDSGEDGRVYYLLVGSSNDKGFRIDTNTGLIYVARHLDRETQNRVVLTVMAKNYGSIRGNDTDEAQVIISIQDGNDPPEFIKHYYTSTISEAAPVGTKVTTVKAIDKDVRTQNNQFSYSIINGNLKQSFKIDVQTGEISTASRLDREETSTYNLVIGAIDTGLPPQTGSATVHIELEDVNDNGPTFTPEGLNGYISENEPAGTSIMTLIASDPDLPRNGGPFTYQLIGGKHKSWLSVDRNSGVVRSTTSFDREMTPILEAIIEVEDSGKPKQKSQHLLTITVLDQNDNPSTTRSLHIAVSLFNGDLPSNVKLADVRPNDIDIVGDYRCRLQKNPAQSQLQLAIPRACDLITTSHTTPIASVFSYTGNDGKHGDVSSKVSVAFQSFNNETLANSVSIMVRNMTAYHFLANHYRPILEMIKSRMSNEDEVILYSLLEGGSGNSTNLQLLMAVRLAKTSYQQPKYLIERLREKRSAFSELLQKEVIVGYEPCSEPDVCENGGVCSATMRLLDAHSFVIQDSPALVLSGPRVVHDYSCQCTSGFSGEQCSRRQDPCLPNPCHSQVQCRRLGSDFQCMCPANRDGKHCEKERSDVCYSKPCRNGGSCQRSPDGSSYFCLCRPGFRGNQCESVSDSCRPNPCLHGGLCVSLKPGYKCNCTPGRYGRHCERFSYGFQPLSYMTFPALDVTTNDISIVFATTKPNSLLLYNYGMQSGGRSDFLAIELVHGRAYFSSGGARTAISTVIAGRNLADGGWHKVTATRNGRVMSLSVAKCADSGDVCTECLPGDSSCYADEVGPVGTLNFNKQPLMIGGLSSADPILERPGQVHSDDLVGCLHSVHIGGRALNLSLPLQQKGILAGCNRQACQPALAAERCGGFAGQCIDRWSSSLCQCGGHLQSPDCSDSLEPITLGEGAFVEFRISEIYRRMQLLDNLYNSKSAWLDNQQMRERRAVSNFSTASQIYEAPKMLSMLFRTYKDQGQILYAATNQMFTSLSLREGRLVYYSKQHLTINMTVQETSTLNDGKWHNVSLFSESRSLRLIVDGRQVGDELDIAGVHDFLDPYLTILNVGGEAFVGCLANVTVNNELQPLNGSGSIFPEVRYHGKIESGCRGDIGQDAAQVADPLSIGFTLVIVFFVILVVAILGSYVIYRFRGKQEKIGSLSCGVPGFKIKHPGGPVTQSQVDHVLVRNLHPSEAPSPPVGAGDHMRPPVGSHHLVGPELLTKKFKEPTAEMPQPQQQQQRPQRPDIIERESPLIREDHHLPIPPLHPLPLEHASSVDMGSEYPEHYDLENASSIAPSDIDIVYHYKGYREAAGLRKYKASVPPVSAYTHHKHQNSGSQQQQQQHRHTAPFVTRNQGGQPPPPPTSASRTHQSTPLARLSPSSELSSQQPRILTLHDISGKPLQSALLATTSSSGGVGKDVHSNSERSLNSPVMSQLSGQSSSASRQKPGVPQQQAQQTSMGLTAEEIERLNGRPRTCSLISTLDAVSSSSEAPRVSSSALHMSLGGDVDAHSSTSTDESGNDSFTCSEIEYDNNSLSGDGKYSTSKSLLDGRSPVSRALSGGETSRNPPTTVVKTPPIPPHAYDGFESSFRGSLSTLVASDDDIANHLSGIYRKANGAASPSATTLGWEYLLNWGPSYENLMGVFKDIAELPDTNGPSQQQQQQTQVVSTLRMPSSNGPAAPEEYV

stoichiometry N [1]: 0.777 sites
Molecule: Drosophila Ds(EC1-4) (from UniProt Q24292 74-3556) (domain or fragment)

Kd [3]: 4.1 µM and 5.05 µM
Molecule: Drosophila Ds(EC1-4), unmodified (from UniProt Q24292 74-3556) (domain or fragment)

Kd [2]: 12.5 µM
Molecule: Drosophila Ds(EC1–4), phosphorylated (domain or fragment)

Further lines, the molecule ahead of its results:

Molecule: Drosophila Ds(EC1–4), unmodified (domain or fragment)
Kd [2]: 4.58 µM

Molecule: Phosphorylated Drosophila Ds(EC1-4) (from UniProt Q24292 74-3556) (domain or fragment)
stoichiometry N [1]: 0.751 sites
Kd [3]: 13.6 µM and 11.4 µM

Molecule: PCDH15 EC1-EC2 (from UniProt Q99PJ1)
Kd [4]: 2900 nM

B1: Human Dchs1(EC1-3) (domain or fragment)
chain: DPQAGSLDLQIDEEQPAGTLIGDISAGLPAGTAAPLMYFISAQEGSGVGTDLAIDEHSGVVRTARVLDREQRDRYRFTAVTPDGATVEVTVRVADINDHAPAFPQARAALQVPEHTAFGTRYPLEPARDADAGRLGTQGYALSGDGAGETFRLETRPGPDGTPVPELVVTGELDRENRSHYMLQLEAYDGGSPPRRAQALLDVTLLDINDHAPAFNQSRYHAVVSESLAPGSPVLQVFASDADAGVNGAVTYEINRRQSEGDGPFSIDAHTGLLQLERPLDFEQRRVHELVVQARDGGAHPELGSAFVTVHVRDANDNQPSM
notes: human Dachsous1 (Dchs1), extracellular cadherin domains EC1-EC3, aa43-362; A 3C protease site stands between the protein and the C-terminal BAP-tag and His6
stoichiometry N [5]: 0.978 ± 0.0137 sites
